Target: T1, Developmental Pluripotency Associated 2 (DPPA2), endogenous (human (endogenous in NCI-H661), UniProt Q7Z7J5 1-298)
T1 construct: DPPA2, human, endogenous in NCI-H661 non-small cell lung cancer cells; source: endogenous, NCI-H661 whole cell lysate
T1 sequence (looked up): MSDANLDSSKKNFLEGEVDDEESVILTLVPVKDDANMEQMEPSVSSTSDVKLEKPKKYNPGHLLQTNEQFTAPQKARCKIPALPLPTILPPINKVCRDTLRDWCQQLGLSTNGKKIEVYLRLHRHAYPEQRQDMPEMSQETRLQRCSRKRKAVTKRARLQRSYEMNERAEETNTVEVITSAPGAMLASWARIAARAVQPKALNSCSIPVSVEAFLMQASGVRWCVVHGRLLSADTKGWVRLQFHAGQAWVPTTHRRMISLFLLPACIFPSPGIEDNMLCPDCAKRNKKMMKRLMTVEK
Experiment: affinity purification with mass spectrometry; endogenous DPPA2 or DPPA4 immunoprecipitated from NCI-H661 whole cell lysates (n=4 per condition); enrichment against species matched IgG IP by label-free quantitation; relative iBAQ for stoichiometry
Conditions: partners not purified

B1: Developmental Pluripotency Associated 4 (DPPA4), endogenous (natural protein, human (endogenous in NCI-H661), UniProt Q7L190 1-304, looked up)
chain: MLRGSASSTSMEKAKGKEWTSTEKSREEDQQASNQPNSIALPGTSAKRTKEKMSIKGSKVLCPKKKAEHTDNPRPQKKIPIPPLPSKLPPVNLIHRDILRAWCQQLKLSSKGQKLDAYKRLCAFAYPNQKDFPSTAKEAKIRKSLQKKLKVEKGETSLQSSETHPPEVALPPVGEPPALENSTALLEGVNTVVVTTSAPEALLASWARISARARTPEAVESPQEASGVRWCVVHGKSLPADTDGWVHLQFHAGQAWVPEKQEGRVSALFLLPASNFPPPHLEDNMLCPKCVHRNKVLIKSLQWE
notes: DPPA4, human, endogenous in NCI-H661 non-small cell lung cancer cells; source: endogenous, NCI-H661 whole cell lysate
With B1 the “ratio between DPPA2 and DPPA4 (relative iBAQ) in the DPPA2-IP” value was greater than 1.

From paper doi:10.1101/2025.04.27.650876, “Embryonic stem cell factors DPPA2/4 facilitate a unique chromatin state in non-small cell lung cancer” (bioRxiv, 2025)
